PMC10696041, “Identification of PCPE-2 as the endogenous specific inhibitor of human BMP-1/tolloid-like proteinases” (Nature Communications, 2023)

T1: bone morphogenetic protein-1 (human, UniProt P13497-2 121-730)
T1 construct: human BMP-1, the BMP-1 (BMP-1-1) splice variant of the BMP1 gene with CUB1-CUB2-EGF-CUB3 auxiliary domains; called full-length BMP-1 against the deletion mutants; also called BMP-1; BMP-1-1; source: Supplementary Methods
T1 sequence (looked up): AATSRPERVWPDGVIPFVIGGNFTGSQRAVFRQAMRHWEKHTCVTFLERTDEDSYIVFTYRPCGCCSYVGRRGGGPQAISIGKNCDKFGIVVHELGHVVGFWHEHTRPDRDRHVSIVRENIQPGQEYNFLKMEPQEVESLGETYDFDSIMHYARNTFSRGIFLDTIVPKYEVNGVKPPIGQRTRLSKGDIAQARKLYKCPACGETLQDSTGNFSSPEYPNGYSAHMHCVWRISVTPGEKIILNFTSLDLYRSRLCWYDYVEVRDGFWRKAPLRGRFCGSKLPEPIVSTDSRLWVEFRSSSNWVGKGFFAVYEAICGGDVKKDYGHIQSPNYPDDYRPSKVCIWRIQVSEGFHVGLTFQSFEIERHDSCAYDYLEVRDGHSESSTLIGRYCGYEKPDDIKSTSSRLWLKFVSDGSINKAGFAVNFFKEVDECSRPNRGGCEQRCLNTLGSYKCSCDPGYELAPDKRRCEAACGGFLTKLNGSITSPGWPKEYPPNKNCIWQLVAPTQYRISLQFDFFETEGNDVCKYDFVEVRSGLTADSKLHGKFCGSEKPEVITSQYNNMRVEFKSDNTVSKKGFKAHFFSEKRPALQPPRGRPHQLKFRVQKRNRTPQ

T2: procollagen C-proteinase enhancer 1, native form with no His tag (human, UniProt Q15113 26-449)
T2 construct: PCPE-1, native form with no His tag, used in the SPR analyses; The activity assays used another form, PCPE-1[Cter-8His]; also called PCPE-1
T2 sequence (looked up): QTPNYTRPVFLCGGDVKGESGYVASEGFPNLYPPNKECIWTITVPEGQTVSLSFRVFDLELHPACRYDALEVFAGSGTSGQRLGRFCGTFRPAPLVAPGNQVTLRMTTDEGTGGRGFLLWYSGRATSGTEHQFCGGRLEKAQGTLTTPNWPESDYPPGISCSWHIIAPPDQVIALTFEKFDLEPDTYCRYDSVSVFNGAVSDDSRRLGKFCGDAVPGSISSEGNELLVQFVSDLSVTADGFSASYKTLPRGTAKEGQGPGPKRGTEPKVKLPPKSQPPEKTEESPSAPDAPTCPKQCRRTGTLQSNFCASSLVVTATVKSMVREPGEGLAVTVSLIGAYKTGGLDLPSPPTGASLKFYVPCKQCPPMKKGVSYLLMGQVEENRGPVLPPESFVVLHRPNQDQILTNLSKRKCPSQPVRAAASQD

B1: CUB1CUB2 domains of PCPE-2 generated from PCPE-2 3C (domain or fragment, human, UniProt Q9UKZ9 24-270, looked up)
chain: QSPERPVFTCGGILTGESGFIGSEGFPGVYPPNSKCTWKITVPEGKVVVLNFRFIDLESDNLCRYDFVDVYNGHANGQRIGRFCGTFRPGALVSSGNKMMVQMISDANTAGNGFMAMFSAAEPNERGDQYCGGLLDRPSGSFKTPNWPDRDYPAGVTCVWHIVAPKNQLIELKFEKFDVERDNYCRYDYVAVFNGGEVNDARRIGKYCGDSPPAPIVSERNELLIQFLSDLSLTADGFIGHYIFRPK
notes: human PCPE-2 from its beginning to amino-acid 270; an HRV 3C-protease site was inserted between amino-acids 270 and 271 of full-length human PCPE-2; Residues of the two 3C sites are probably left on both ends after cleavage; also called the CUB domains of PCPE-2; not shown: His6, N-terminal, cleaved
B2: mini-procollagen III (domain or fragment)
chain: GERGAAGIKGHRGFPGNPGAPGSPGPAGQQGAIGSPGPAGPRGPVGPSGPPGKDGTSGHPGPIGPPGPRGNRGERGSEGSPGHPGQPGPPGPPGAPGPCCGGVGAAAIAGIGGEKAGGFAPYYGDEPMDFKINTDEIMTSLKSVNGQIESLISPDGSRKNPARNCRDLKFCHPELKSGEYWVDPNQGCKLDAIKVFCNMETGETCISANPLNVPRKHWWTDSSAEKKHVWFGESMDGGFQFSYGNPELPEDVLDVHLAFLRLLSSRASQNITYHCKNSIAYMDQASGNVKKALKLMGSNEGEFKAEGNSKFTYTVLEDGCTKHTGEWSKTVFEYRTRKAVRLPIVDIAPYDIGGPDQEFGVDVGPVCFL
modifications: Homotrimer. The paper does not print the limits. The start assumes the last 33 Gly-X-Y triplets (helix end at 1196), recalled from earlier descriptions of this construct, followed by the intact …
B3: procollagen C-proteinase enhancer-2 with N-terminal 6His-tag (natural protein, human, UniProt Q9UKZ9 24-415, looked up)
chain: QSPERPVFTCGGILTGESGFIGSEGFPGVYPPNSKCTWKITVPEGKVVVLNFRFIDLESDNLCRYDFVDVYNGHANGQRIGRFCGTFRPGALVSSGNKMMVQMISDANTAGNGFMAMFSAAEPNERGDQYCGGLLDRPSGSFKTPNWPDRDYPAGVTCVWHIVAPKNQLIELKFEKFDVERDNYCRYDYVAVFNGGEVNDARRIGKYCGDSPPAPIVSERNELLIQFLSDLSLTADGFIGHYIFRPKKLPTTTEQPVTTTFPVTTGLKPTVALCQQKCRRTGTLEGNYCSSDFVLAGTVITTITRDGSLHATVSIINIYKEGNLAIQQAGKNMSARLTVVCKQCPLLRRGLNYIIMGQVGEDGRGKIMPNSFIMMFKTKNQKLLDALKNKQC
notes: human PCPE-2, called full-length; two mutations of the bought clone (829 G>T, 874 C>A) were corrected; The most widely used PCPE-2 construct of the study; also called PCPE-2; PCPE-2[Nter-6His]; not shown: His6, N-terminal, kept

Legend:
Details in all cases: both partners purified
[1] = target: T1, bone morphogenetic protein-1; assay: SPR; BMP-1 immobilised by amine coupling on CM5 (974, 1302 or 1492 RU); 10 mM HEPES pH 7.4, 0.15 M NaCl, 5 mM CaCl2, 0.05% P20, 25 °C; PCPE-2 1.56-100 nM with steady-state fit (heterogeneous ligand model for kinetics), 50 nM for comparisons
[2] = target: B3; assay: SPR; mini-procollagen III immobilised by amine coupling on CM5 (435, 437 or 651 RU); analytes in 10 mM HEPES pH 7.4, 0.15 M NaCl, 5 mM CaCl2, 0.05% P20, 25 °C; steady-state fit for constants, 50 nM single injections for the CUB1CUB2* mutants
[3] = target: T2, procollagen C-proteinase enhancer 1, …; assay: as above
[4] = target: B1; assay: as above
[5] = target: T1, bone morphogenetic protein-1; assay: enzyme inhibition assay (fluorogenic peptide cleavage); apparent; 7 nM BMP-1, 20 µM Mca-YVADAPK(Dnp)-OH, PCPE-2 0.07-690 nM, 50 mM HEPES pH 7.4, 5 mM CaCl2, 0.02% βOG, 37 °C; Morrison equation for tight-binding inhibitors with a constant for partial inhibition

B1
binding result [1]: binds

B2
Kd [2]: 11 nM
Kd [3]: 2.2 nM
Kd [4]: ~30 nM

B3
Kd [1]: 8.4 nM
Ki [5]: 2.8 nM
